This is an account of results in patent US20240409645A1.

The chains are these.
T1: mouse IL-2Rβ (mouse) (UniProt P16297)
T1 sequence (looked up): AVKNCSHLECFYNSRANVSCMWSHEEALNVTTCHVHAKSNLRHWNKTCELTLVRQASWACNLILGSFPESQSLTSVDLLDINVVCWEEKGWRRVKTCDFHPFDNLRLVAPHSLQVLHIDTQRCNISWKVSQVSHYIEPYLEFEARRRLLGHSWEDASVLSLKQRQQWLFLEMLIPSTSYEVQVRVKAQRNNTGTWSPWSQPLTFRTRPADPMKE

B1: FJ1427_P035MP03F08 (VHH)
VHH: EVQLVESGGGLVQTGGSLRLSCAASGGTFSRDAMAWFRQVPGKEREFVALISWSGATTNYADSVKGRFAISRDNGKNTVYLQMNRLKPADTAIYYCAADRRPMGSRSYFEPTEYDDWGQGTQVTVSS
B2: FJ1427 P035MP02H09 (VHH)
VHH: QLQLVESGGGLVQPGGSLRLSCAAAGRAIENYPVGWFRRAPGKEREFVAAITWISGSTLYADSVKGRFTISRDNAKNTVYLQMSSLKPEDTALYYCAAALKTITRGQNDYSYWGQGTQVTVSS
B3: FJ1427_P035MP02E10 (VHH)
VHH: QVQLVESGGGLVQAGGSLRLSCAAAGRAIENYPVGWFRRAPGKEREFVAAITWISGSTLYADSVKGRFTISRDNAKNTVYLQMSSLKPEDTALYYCAAALKTITRGQNDYSYWGQGTQVTVSS
B4: FJ1427_P035MP02B08 (VHH)
VHH: EVQLVESGGGLVQAGGSLRLSCAASGRAIENYPVGWFRQAPGKEREFVAAITWISGSTLYADSVKGRFTISRDNAKNTVYLQMSSLKPEDTALYYCAAALKTITRGQNDYSYWGQGTQVTVSS
B5: FJ1427 P035MP02E11 (VHH)
VHH: QVQLQESGGGLVQAGGSLRLSCAASGRTFSNYVMAWFRQAPGKEREFVGAITQTGRGTFYADSVEGRFTISRINDKNTVYLQMNSLKPEDTAVYYCSAPRSGRAGTRNQMDYEYWGQGTQVTVSS
B6: FJ1427_P035MP02B09 (VHH)
VHH: EVQLVESGGGLVQAGGSLRLSCAASGRTFSTTEMGWFRQAPGKEREFVAAITWTGRGTMYAESVEGRFTISRENAKNMVYLQMNSLKPEDTAIYYCAAARRGRAAVRSEGGYDFWGQGTQVTVSS
B7: FJ1427_P035MP02A11 (VHH)
VHH: EVQLVESGGGLVQAGGSLRLSCAASGRTFSTTEMGWFRQAPGKEREFVAAITWTGRGTMYAESVEGRFTISRENAKNMVYLQMNSLKPEDTAIYYCAAARRGRAAVRSEGGYDFWGQGTQATVSS
B8: FJ1427_P035MP02G10 (VHH)
VHH: QVQLVESGGGLVQAGGSLRLSCAASGRTFSTTEMGWFRQAPGKEREFVAAITWTGRGTMYAESVEGRFTISRENAKNMVYLQMNSLKPEDTAIYYCAAARRGRAAVRSEGGYDFWGQGTQVTVSS
B9: FJ1427 P035MP02E06 (VHH)
VHH: QVQLVESGGGSVQPGGSLRLSCAASGFTFSNYAMSWVRQAPGKGLEWVASITGFGRGTDYADSVKGRFTISRDNAEDTLYLQMNSLKPEDTAVYYCAKYSSSTYYPPTPARGRDYRGQGTQVTVSS
B10: FJ1427 P035MP02C01 (VHH)
VHH: QVQLVESGGGLVQPGGSLGLSCAASGFTFDNYAMSWVRQAPGKGLEWVSSITGAGRGTHYADSVKGRFTISRDNAKNTLYLQMNSLKPEDTAVYYCAKYSSSTYYPPTPARGTDYRGPGTQVTVSS
B11: FJ1427_P035MP03F12 (VHH)
VHH: EVQLVESGGGLVQAGGSLRLSCAASGSIFSINAMAWFRQVPGMERELVAAISRDGGASVYRDSVKGRFTISRDNSKNTVYLQMNTLKPEDTAIYVCAATRAIGWTARWITTDFDFWGQGTQVTVSS
B12: FJ1427_P035MP02G09 (VHH)
VHH: QVQLVESGGGLVQAGGSLRLSCTVSGDVFVRYTMAWFRQAPGKEREFVALVTDSGRTTEYVDSVKGRFTVSRDNAKNTVYLQMNNLKPEDTAVYYCAANTDYFRIRSLDANTWGQGTQVTVSS
B13: FJ1427_P035MP02F10 (VHH)
VHH: EVQLVESGGGLVQAGGSLRLSCVVSGDVFVRYTMAWFRQAPGKEREFVAVVTDSGRTTEYVDSVKGRFTVSRDNAKNTVYLQMNNLKPEDTAVYYCAANTDYFQIRSVDNNAWGQGTQVTVSS
B14: FJ1427 P035MP02C03 (VHH)
VHH: EVQLVESGGGLVQTGGSLRLSCAASGSQFINDVMGWYRQVPGKQRELVADMDDTGSTEYADSVKGRFTILRDSVKNTAYLQMSNLKPEDTGVYYCKAGLWIKGRHFDYWGQGTQVTVSS
B15: FJ1427_P035MP02B01 (VHH)
VHH: QVQLVESGGGLVQTGGSLRLSCAASGSQFINDVMGWYRQVPGKQRELVADMDDTGSTKYADSVKGRFTILRDSVKNTAYLQMSNLKPEDTGVYYCKAGLWIKGRHFDYWGQGTQVTVSS
B16: FJ1427_P035MP02B10 (VHH)
VHH: QVQLVESGGGLVEAGGSLRLSCAASGRAFNNFPMGWFRQAPGKEREFVAAITWISGSTLYADSVKGRFTISRDKSKNTVYLQMSGLKPEDTALYYCAAALKTITRGQHDYTYWGQGTQVTVSS
B17: FJ1427 P035MP03A12 (VHH)
VHH: EVQLVESGGGLVQAGGSLRLSCAASGRTFSINAMGWFRQAPGKEREFVAAISRSGGSTVYVDGVKGRFTISRDNAKNTVYLQMNSLEPEDTAVYYCAATMAVGWTTRWRTADFDSWGQGTQVTVSS
B18: FJ1427_P035MP02H08 (VHH)
VHH: EVQLVESGGGLVQAGDSLRISCAASGRIFSNYAMGWFRQAPGKETEFVAGITHLTSTTHYADSVKGRFTISRDNAKNTMHLQMNNLKPEDTALYYCAADRNIKITADWSYWGQGTQVTVAS
B19: FJ1427 P035MP02D11 (VHH)
VHH: QVQLQESGGGLVQAGDSLRISCAASGRIFSNYAMGWFRQAPGKETEFVAGITHLTSTTHYADSVKGRFTISRDNAKNTMHLQMNNLKPEDTALYYCAADRNIKITADWSYWGQGTQVTVAS
B20: FJ1427 P035MP02A10 (VHH)
VHH: QLQLVESGGGLVQTGTSLRLSCAASGHTSRINAMGWFRQFPGKEREFVAAISRNGGSTVYVDSVKGRFTISRDNAKSTVYLQMNSLKPEDTAVYYCTATDAVGWTTRWMTADFGFWGQGTQVTVSS
B21: FJ1427 P035MP02D10 (VHH)
VHH: EVQLVESGGGLVQAGGSLRLSCAASGRTFSSDAKAWFRQAPGKEREFVAAITWAGRGTDYADSVKDRFTITRDNAKNMVYLQMSSLKPEDTAVYYCALNPTGVIGPGFRNSNRYDYWGQGTQVTVAS
B22: FJ1427_P035MP06F05 (VHH)
VHH: QVQLVESGGGLVQTGDSLRLSCAASGRSLDTTYIAWFRQAPGKERDFLAYISPRFSHTWYADSVKGRFTISRNIAKRTVDLEMNSLEPEDTAVYYCAAREHSGSTAWEHYDHWGQGTQVTVSS
B23: FJ1427_P035MP03F10 (VHH)
VHH: EVQLVESGGGLVQAGGSLRLSCAASGRDFSSYAMGWFRQAPGKEREFVVAITWTKRSTDFPDSVKGRFTISRDNAKNTVYLDMNSLKPEDTAVYYCASARGLPVTPLGDIIYWGEGTLVTVSS
B24: FJ1427_P035MP02C09 (VHH)
VHH: QVQLQESGGGLVQAGGSLRLSCVASGSVSSINGMAWYRQGADNQRVLVAAISRVGNTAYGDSVKGRFTISRQNARNTVYLQMNSLKPEDTAVYYCNADSWGGDDYWGQGTQVTVSS
B25: FJ1427 P035MP02D09 (VHH)
VHH: QVQLVESGGGLVQAGGSLRLACALSGDVFVRYTMAWFRQAPGKEREFVASVTDSGRTTDYVASVQGRFTVSRDNNKNTVYLQMNSLKPEDTAVYYCAANTDYFQIRSLDRNTWGQGTQVTVSS
B26: FJ1427 P035MP02H10 (VHH)
VHH: EVQLVESGGGLVQAGGSLRLSCAASGDVFVRYTMAWFRQAPGKEREFVASVTDSGRTTDYVDSVKGRFTVSRDNAKNTVYLQMNNLKPEDTAVYYCAANTDYFQIKSLDRNTWGQGTQVTVSS
B27: FJ1427_P035MP02C10 (VHH)
VHH: QVQLVESGGGLVQAGGSLRLACALSGDVFVRYTMAWFRQAPGKEREFVASVTDSGRTTDYVASVQGRFTVSRDNNKNTVYLQMNSLKPEDTAVYYCAANTDYFQIRSLDRNTWGQGTQVTVSS
B28: FJ1427_P035MP02F09 (VHH)
VHH: EVQLVESGGGLVQAGGSLRLSCAASGDVFVRYTMAWFRQAPGKEREFVASVTDSGRTTDYVDSVKGRFTVSRDNAKNTVYLQMNNLKPEDTAVYYCAANTDYFQIRSLEFNTWGQGTQVTVSS
B29: FJ1427 P035MP06E05 (VHH)
VHH: QVQLVESGGELVQGGASLRLSCAASGRTFSNANMAWFRQAPEKEREFVALITWSSGSTLYADSVKGRFTISRDNARKMVYLQMNSLKPEDTAVYYCAADGPPYSGTYYRYDTYDYWGQGTQVTVSS
B30: FJ1427_P035MP02A01 (VHH)
VHH: QVQLVESGGGLVQTGGSLRLSCVVSGSHFISDVMGWYRQVPGKQRELVADMADGGSAKYGDSVKGRFTILRDSVKNTVYLQMSSLNPEDTGVYYCKAGLWITGRHSDYWGQGTQVTVSS
B31: FJ1427_P035MP03C03 (VHH)
VHH: QVQLVESGGGLVQPGGSLRLSCAISGGTLDSYGIGWVRQAPGKQREGVSCMSRSDDRTYYADSVKGRFTISKDSAKNTVYLQMTSLKPEDTAVYYCAAVDAYGCSLVQPTTYDFWGLGTQVTVSS

The target in the test is T1, mouse IL-2Rβ (mouse). Kind of test: P.E. ELISA, coated protein.
Molecule B1 gave a P.E. binding ELISA OD of 0.049 OD450 nm.

B2 showed a P.E. binding ELISA OD of 0.049 OD450 nm.

B3 yielded a P.E. binding ELISA OD of 0.047 OD450 nm.

Molecule B4 returned a P.E. binding ELISA OD of 0.048 OD450 nm.

For the molecule B5, the P.E. binding ELISA OD is 0.048 OD450 nm.

The molecule B6 registered a P.E. binding ELISA OD of 0.047 OD450 nm.

B7 yielded a P.E. binding ELISA OD of 0.047 OD450 nm.

The molecule B8 returned a P.E. binding ELISA OD of 0.048 OD450 nm.

B9 came in with a P.E. binding ELISA OD of 0.048 OD450 nm.

In turn, B10 showed a P.E. binding ELISA OD of 0.047 OD450 nm.

For B11, the P.E. binding ELISA OD amounted to 0.048 OD450 nm.

For the molecule B12, the P.E. binding ELISA OD was found to be 0.066 OD450 nm.

In turn, B13 yielded a P.E. binding ELISA OD of 0.051 OD450 nm.

B14 had a P.E. binding ELISA OD of 0.047 OD450 nm.

In the case of B15, the P.E. binding ELISA OD was 0.048 OD450 nm.

The molecule B16 had a P.E. binding ELISA OD of 0.047 OD450 nm.

The molecule B17 gave a P.E. binding ELISA OD of 0.05 OD450 nm.

Take B18: the P.E. binding ELISA OD came to 0.049 OD450 nm.

B19 came in with a P.E. binding ELISA OD of 0.047 OD450 nm.

The molecule B20 had a P.E. binding ELISA OD of 0.047 OD450 nm.

As for B21, the P.E. binding ELISA OD was 0.047 OD450 nm.

B22 registered a P.E. binding ELISA OD of 0.047 OD450 nm.

Regarding B23, the P.E. binding ELISA OD stood at 0.048 OD450 nm.

In the case of B24, the P.E. binding ELISA OD was found to be 0.047 OD450 nm.

In the case of B25, the P.E. binding ELISA OD was found to be 0.056 OD450 nm.

Regarding B26, the P.E. binding ELISA OD is 0.051 OD450 nm.

In turn, B27 had a P.E. binding ELISA OD of 0.05 OD450 nm.

For the molecule B28, the P.E. binding ELISA OD came to 0.051 OD450 nm.

In turn, B29 registered a P.E. binding ELISA OD of 0.046 OD450 nm.

As to B30, the P.E. binding ELISA OD came out at 0.048 OD450 nm.

B31: the P.E. binding ELISA OD is 0.048 OD450 nm.
